Substitutions are numbered along the chain they refer to. In names and notes the source's numbering stands. Like-named read-outs stand apart in the source and are kept apart here. Square brackets hold non-standard residues; d marks the D form. Ends that are not written are not given here. Lys(Me3) = C[N+](C)(C)CCCC[C@H](N)C(=O)O
Experiments:
[1] = target: T1, Eaf3 chromo barrel domain (1–113 aa) (Saccharomyces cerevisiae, UniProt Q12432); assay: 15N-1H HSQC NMR titration of 15N-labeled Eaf3; format: binding; conditions: for affinity for Eaf3 (in words): HSQC titration, pH 6.7; for affinity relative to other methylated ligands (in words): from KD comparison
T1 sequence (Q12432 1-113): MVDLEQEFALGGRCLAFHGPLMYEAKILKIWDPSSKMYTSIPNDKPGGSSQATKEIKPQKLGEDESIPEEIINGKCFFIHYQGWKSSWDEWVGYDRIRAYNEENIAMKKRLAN

[2] = Protein stability, precipitation or aggregation of Eaf3 constructs; format: physicochemical; conditions: purified proteins expressed in Escherichia coli or NMR samples
[3] = target: T2, Eaf3 chromo barrel domain (1–113 aa) (S. cerevisiae, UniProt Q12432 1-113); assay: NMR titration
T2 sequence (looked up): T1 sequence (Q12432 1-113)

[4] = Gel filtration chromatography of extended Eaf3; format: physicochemical; conditions: change in gel filtration chromatography retention time (data not shown)
[5] = test system: Eaf3 chromo barrel domain and linked H3KC36me2; assay: 15N-1H HSQC spectra of fused Eaf3-H3C36; format: binding, Saccharomyces cerevisiae; conditions: 15N-1H HSQC before and after dimethylation, 300K, pH 6.7
[6] = read-out: dissociation constant (KD), 15N-1H HSQC titration, 15N-labeled Eaf3 (1–113 aa), 300K, 20 mM NaPi pH 6.7, 50 mM NaCl, 1 mM EDTA, 2 mM DTT, range of estimates from amide peaks of two to four selected amino acids, curve fitting

Molecule: CN(C)C(N)=NCCC[C@H](N)C(=O)O [asymmetrically dimethylated arginine, reference compound]
- affinity for Eaf3 (in words) ([1]; 300K): does not have any significant affinity

Molecule: C[N+](C)(C)CCCC[C@H](N)C(=O)O [trimethyllysine, trimethylated lysine, reference compound]
- Kd [1]: 8.6 to 19.2 mM
- affinity relative to other methylated ligands (in words) [1]: significantly lower than that measured with trimethylated peptides under similar conditions

Molecule: ATGGVK36me3KPHRYR [H3K36me3]
- affinity for Eaf3 (in words) ([1]; 300K): very low affinity (KD in the millimolar range)
- affinity for Eaf3 (in words) ([1]; 300K, listed as methylated H3K36 peptide): millimolar-range affinity
- affinity relative to other methylated ligands (in words) [1]: comparable to that determined for the Eaf3-H3K4me3 complex
- Kd [1, 6]: 1.8 to 3.4 mM

Molecule: ATGGVKC36me3KPHRYR (ATGGVCKPHRYR; not fully specified (residue 6)) [H3KC36me3]
- affinity relative to other methylated ligands (in words) [1]: only slightly lower than that of the H3K36me3 peptide

Molecule: KRHRK20me3VLRDN [H4K20me3]
- Kd [1, 6]: 3 to 4 mM

B1: Eaf3: N-terminal 1–113 aa of budding yeast Eaf3 (protein)
chain: T1 sequence (Q12432 1-113)
- protein stability / precipitation / aggregation (in words) [2]: has a tendency to aggregate

Molecule: KRHR[Lys(Me3)]VLRDN [H4K20me3 peptide (16–25 aa)]
- Kd [3]: 3 to 4 mM

Molecule: ART[Lys(Me3)]QTARKS [H3K4me3 peptide (1–10 aa)]
- Kd [3]: 1 to 3 mM

B2: Eaf3 (1–126 aa): Eaf3 extended by 13 residues (protein)
chain: MVDLEQEFALGGRCLAFHGPLMYEAKILKIWDPSSKMYTSIPNDKPGGSSQATKEIKPQKLGEDESIPEEIINGKCFFIHYQGWKSSWDEWVGYDRIRAYNEENIAMKKRLANEAKEAKKSLLEQQ
- oligomerization (in words) [4]: apparent homodimerization

Molecule: ATGGV[Lys(Me3)]KPHRYR [H3K36me3 peptide (31–42 aa)]
- Kd [3]: 1.8 to 3.4 mM

Molecule: ATGGVCKPHRYR (not fully specified (residue 6)) [H3KC36me3 peptide (31–42 aa)]
- Kd [3]: 5 to 7 mM

B3: Y23A: single-point mutation in Eaf3-H3C36 (protein, UniProt Q12432 1-401, looked up, variant Y23A)
Chromatin …: MVDLEQEFALGGRCLAFHGPLMAEAKILKIWDPSSKMYTSIPNDKPGGSSQATKEIKPQKLGEDESIPEEIINGKCFFIHYQGWKSSWDEWVGYDRIRAYNEENIAMKKRLANEAKEAKKSLLEQQKKKKLSTSLGGPSNGGKRKGDSRSNASISKSTSQSFLTSSVSGRKSGRSSANSLHPGSSLRSSSDQNGNDDRRRSSSLSPNMLHHIAGYPTPKISLQIPIKLKSVLVDDWEYVTKDKKICRLPADVTVEMVLNKYEHEVSQELESPGSQSQLSEYCAGLKLYFDKCLGNMLLYRLERLQYDELLKKSSKDQKPLVPIRIYGAIHLLRLISVLPELISSTTMDLQSCQLLIKQTEDFLVWLLMHVDEYFNDKDPNRSDDALYVNTSSQYEGVALGM
modifications: fused to histone H3 peptide
- protein stability / precipitation / aggregation (in words) [2]: unstable and highly prone to precipitation

B4: Y81A: single-point mutation in Eaf3-H3C36 (protein, UniProt Q12432 1-401, looked up, variant Y81A)
Chromatin …: B3 Chromatin … with A23Y, Y81A
modifications: fused to histone H3 peptide
- protein stability / precipitation / aggregation (in words) [2]: unstable and highly prone to precipitation

B5: W88A: single-point mutation in Eaf3-H3C36 (protein, UniProt Q12432 1-401, looked up, variant W88A)
Chromatin …: B3 Chromatin … with A23Y, W88A
modifications: fused to histone H3 peptide
- spectral change upon dimethylation of fused H3C36 [5]: Very little spectral change

B6: W84A: single-point mutation in Eaf3-H3C36 (protein, UniProt Q12432 1-401, looked up, variant W84A)
Chromatin …: B3 Chromatin … with A23Y, W84A
modifications: fused to histone H3 peptide
- spectral change upon dimethylation of fused H3C36 [5]: Very little spectral change
- protein stability / precipitation / aggregation (in words) [2]: prone to precipitation
